Data: article PMC13627691 (2026)

B1: ATG2A-mCherry (expressed as 3XFLAG-TEV-ATG2A-mCherry) [not stated (the printed accession is a human entry)] / GST-tagged LC3B [not stated (the printed accession is a human entry)] (parent complex)
chain 1: MSRWLWPWSNCVKERVCRYLLHHYLGHFFQEHLSLDQLSLDLYKGSVALRDIHLEIWSVNEVLESMESPLELVEGFVGSIEVAVPWAALLTDHCTVRVSGLQLTLQPRRGPAPGAADSQSWASCMTTSLQLAQECLRDGLPEPSEPPQPLEGLEMFAQTIETVLRRIKVTFLDTVVRVEHSPGDGERGVAVEVRVQRLEYCDEAVRDPSQAPPVDVHQPPAFLHKLLQLAGVRLHYEELPAQEEPPEPPLQIGSCSGYMELMVKLKQNEAFPGPKLEVAGQLGSLHLLLTPRQLQQLQELLSAVSLTDHEGLADKLNKSRPLGAEDLWLIEQDLNQQLQAGAVAEPLSPDPLTNPLLNLDNTDLFFSMAGLTSSVASALSELSLSDVDLASSVRSDMASRRLSAQAHPAGKMAPNPLLDTMRPDSLLKMTLGGVTLTLLQTSAPSSGPPDLATHFFTEFDATKDGPFGSRDFHHLRPRFQRACPCSHVRLTGTAVQLSWELRTGSRGRRTTSMEVHFGQLEVLECLWPRGTSEPEYTEILTFPGTLGSQASARPCAHLRHTQILRRVPKSRPRRSVACHCHSELALDLANFQADVELGALDRLAALLRLATVPAEPPAGLLTEPLPAMEQQTVFRLSAPRATLRLRFPIADLRPEPDPWAGQAVRAEQLRLELSEPQFRSELSSGPGPPVPTHLELTCSDLHGIYEDGGKPPVPCLRVSKALDPKSTGRKYFLPQVVVTVNPQSSSTQWEVAPEKGEELELSVESPCELREPEPSPFSSKRTMYETEEMVIPGDPEEMRTFQSRTLALSRCSLEVILPSVHIFLPSKEVYESIYNRINNDLLMWEPADLLPTPDPAAQPSGFPGPSGFWHDSFKMCKSAFKLANCFDLTPDSDSDDEDAHFFSVGASGGPQAAAPEAPSLHLQSTFSTLVTVLKGRITALCETKDEGGKRLEAVHGELVLDMEHGTLFSVSQYCGQPGLGYFCLEAEKATLYHRAAVDDYPLPSHLDLPSFAPPAQLAPTIYPSEEGVTERGASGRKGQGRGPHMLSTAVRIHLDPHKNVKEFLVTLRLHKATLRHYMALPEQSWHSQLLEFLDVLDDPVLGYLPPTVITILHTHLFSCSVDYRPLYLPVRVLITAETFTLSSNIIMDTSTFLLRFILDDSALYLSDKCEVETLDLRRDYVCVLDVDLLELVIKTWKGSTEGKLSQPLFELRCSNNVVHVHSCADSCALLVNLLQYVMSTGDLHPPPRPPSPTEIAGQKLSESPASLPSCPPVETALINQRDLADALLDTERSLRELAQPSGGHLPQASPISVYLFPGERSGAPPPSPPVGGPAGSLGSCSEEKEDEREEEGDGDTLDSDEFCILDAPGLGIPPRDGEPVVTQLHPGPIVVRDGYFSRPIGSTDLLRAPAHFPVPSTRVVLREVSLVWHLYGGRDFGPHPGHRARTGLSGPRSSPSRCSGPNRPQNSWRTQGGSGRQHHVLMEIQLSKVSFQHEVYPAEPATGPAAPSQELEERPLSRQVFIVQELEVRDRLASSQINKFLYLHTSERMPRRAHSNMLTIKALHVAPTTNLGGPECCLRVSLMPLRLNVDQDALFFLKDFFTSLVAGINPVVPGETSAEARPETRAQPSSPLEGQAEGVETTGSQEAPGGGHSPSPPDQQPIYFREFRFTSEVPIWLDYHGKHVTMDQVGTFAGLLIGLAQLNCSELKLKRLCCRHGLLGVDKVLGYALNEWLQDIRKNQLPGLLGGVGPMHSVVQLFQGFRDLLWLPIEQYRKDGRLMRGLQRGAASFGSSTASAALELSNRLVQAIQATAETVYDILSPAAPVSRSLQDKRSARRLRRGQQPADLREGVAKAYDTVREGILDTAQTICDVASRGHEQKGLTGAVGGVIRQLPPTVVKPLILATEATSSLLGGMRNQIVPDAHKDHALKWRSDSAQD
chain 2: not shown

Variants of: B1
Test: bead-based binding assay (GSH beads, confocal imaging of mCherry fluorescence); 5 µM GST-tagged bait on Glutathione Sepharose 4B beads; 0.5 µM ATG2A-mCherry or ATG2A-LIR-mCherry; SEC150 buffer; N = 3; parent: 17; read off a plot

| Variant | response [%] |
| --- | --- |
| chain 1 F1362A, chain 1 C1363A, chain 1 I1364A, chain 1 L1365A | ~0.7 |
